Source: patent publication US20240317834A1, “COMPOSITIONS AND METHODS FOR NEUROLOGICAL DISEASES” (CODA BIOTHERAPEUTICS, INC., priority 2020, published 2024)

Tests used:
Lenti-X 293T cells = experiment: YFP fluorescence quenching anion reporter plate reader assay of engineered receptors stimulated with acetylcholine or a non-native ligand; format: cell-based
Procedure, shortened: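 YFP quench was followed for about 1 min 43 s after ligand delivered in iodide-based ECS, pH 7.2. Values are end-of-read fluorescence (last 10 s) divided by the pre-ligand baseline (15 s). Cells were LX293T, transfected with receptor DNA a day before the assay.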

HEK293T cells = experiment: High throughput electrophysiology (IonFlux automated patch clamp), EC50 of engineered receptors to ligands; format: cell-based
Procedure: To confirm the EC50s determined by plate reader as well as develop a better understanding of maximum current flow, the engineered receptors were subjected to high throughput electrophysiology system, as described below. For HEK293T studies, cDNAs encoding ion channels were cloned into pcDNA3.1 using standard recombination techniques. HEK293T cells from Clontech (Lenti-X™ 293T Cell Line) were cultured in DMEM supplemented with 10% FBS and 1% Pen/Strep to 40-50% confluence using standard cell culture protocols, transfected with ion channel plasmids at a concentration of 18 μg per 15 cm dish using Fugene 6, and grown for an additional 24 hours. Cells were then assayed on an electrophysiological system (IonFluxHT and/or Mercury, Fluxion Biosciences) in which dose-response relationships may be assessed through a microfluidics-based platform for establishing whole cell configurations. Ensemble plates were primed with extracellular buffer (140 mM NaCl, 5 mM KCl, 2 mM CaCl2), 1 mM MgCl2, 10 mM HEPES, and 10 mM glucose, pH 7.2 with NaOH, mOsm 310), intracellular buffer (145 mM CsCl, 2 mM CaCl2), 2 mM MgCl2, 10 mM HEPES, and 10 mM EGTA, pH 7.2 with CsOH, mOsm 305), as adapted from Lynagh and Lynch, and test compounds (stocks prepared fresh) diluted in extracellular buffer. Cells were then released from the plate with Accutase, centrifuged, resuspended in extracellular buffer, and loaded into Ensemble plates. Cells were then subjected to a standard protocol for priming, trapping, breaking, and establishing whole cell configuration, with cells held at −60 mV throughout the recording. After recording baseline, progressive doses of test compounds were applied using the IonFlux software to assess dose response relationships. Data were then analyzed off-line using custom Python scripts to convert data to .csv format, re-plot traces, and apply QC measurements to reject unstable recordings (i.e. thresholding based on access resistance and/or standard deviation in baseline, as well as artifact rejection). Peak currents were then calculated, and population data were fit using a 4-parameter logistic equation as described by the Hill Equation. Currents were measured on an automated patch clamp system (Fluxion Biosciences) following 1 second addition of drug and the EC50 values calculated are tabulated below in Table 22 below and Table 21 above (in Example 2).

B1: CODA536: engineered chimeric LGIC receptor, L131D, S172D in SEQ ID NO: 33 (protein)
chain: MRCSPGGVWLALAASLLHVSLQGEFQRKLYKELVKNYNPLERPVANDSQPLTVYFSLSLLQIMDVDEKNQVLTTNIWLQMSWTDHYLQWNVSEYPGVKTVRFPDGQIWKPDILLYNSADERFDATFHTNVDVNSSGHCQYLPPGIFKSSCPMDLKNFPMDVQTCKLKFGSWDYGGWSLDLQMQEADISGYIPNGEWDLVGIPGKRSERFYECCKEPYPDVTFTVTMRRRMGYYLIQMYIPSLLIVILSWISFWINMDAAPARVGLGITTVLTMTTQSSGSRASLPKVSYVKAIDIWMAVCLLFVFSALLEYAAVNFVSRQHKELLRFRRKRRHHKSPMLNLFQEDEAGEGRFNFSAYGMGPACLQAKDGISVKGANNSNTTNPPPAPSKSPEEMRKLFIQRAKKIDKISRIGFPMAFLIFNMFYWIIYKIVRREDVHNQ
modifications: synthetic sequence of chimeric LGIC
For B1, the “YFP fluorescence quenching using TC-5619/Bradanicline” value (Lenti-X 293T cells; 1 nM brd) was −1.24%, the “YFP fluorescence quenching using TC-5619/Bradanicline” value (Lenti-X 293T cells; 3 nM brd) was 0.25% and the “YFP fluorescence quenching using TC-5619/Bradanicline” value (Lenti-X 293T cells; 10 nM brd) was −2.57%. The “YFP fluorescence quenching using TC-5619/Bradanicline” value (Lenti-X 293T cells; 30 nM brd) was 0.78%, the “YFP fluorescence quenching using Facinicline” value (Lenti-X 293T cells; 30 nM fac) was 24.15 and the “YFP fluorescence quenching using ABT-126” value (Lenti-X 293T cells; 50 nM abt) was −3.19%. The “YFP fluorescence quenching using CNL002” value (Lenti-X 293T cells; 100 nM CNL002) was 71.72%, the “YFP fluorescence quenching using ABT-126” value (Lenti-X 293T cells; 100 nM abt) was 7.58% and the “YFP fluorescence quenching using AZD-0328” value (Lenti-X 293T cells; 100 nM azd0328) was 51.44%. The “YFP fluorescence quenching using TC-5619/Bradanicline” value (Lenti-X 293T cells; 100 nM brd) was 4.51%, the “YFP fluorescence quenching using ABT-126” value (Lenti-X 293T cells; 300 nM abt) was −1.65% and the “YFP fluorescence quenching using AZD-0328” value (Lenti-X 293T cells; 300 nM azd0328) was 77.12%. The “YFP fluorescence quenching using TC-5619/Bradanicline” value (Lenti-X 293T cells; 300 nM brd) was 30.97%, the “YFP fluorescence quenching using Facinicline” value (Lenti-X 293T cells; 300 nM fac) was 80.17 and the “YFP fluorescence quenching using CNL002” value (Lenti-X 293T cells; 1 uM CNL002) was 77.26%. For the same molecule, the “YFP fluorescence quenching using ABT-126” value (Lenti-X 293T cells; 1 uM abt) was 31.29%, the “YFP fluorescence quenching using TC-5619/Bradanicline” value (Lenti-X 293T cells; 1 uM brd) was 44.41% and the “YFP fluorescence quenching using TC-6987” value (Lenti-X 293T cells; 1 uM tc6987) was −18.24. For the same molecule, the “YFP fluorescence quenching using Facinicline” value (Lenti-X 293T cells; 10 uM fac) was 81.34, the “YFP fluorescence quenching using TC-6987” value (Lenti-X 293T cells; 10 uM tc6987) was −23.06 and the “YFP fluorescence quenching using CNL002” value (Lenti-X 293T cells; 30 uM CNL002) was 77.5%. For the same molecule, the “YFP fluorescence quenching using AZD-0328” value (Lenti-X 293T cells; 30 uM azd0328) was 79.26%, the “YFP fluorescence quenching using Facinicline” value (Lenti-X 293T cells; 30 uM fac) was 79.9 and the “YFP fluorescence quenching using TC-6987” value (Lenti-X 293T cells; 500 uM tc6987) was −19.3. For the same molecule, the “percent quench of YFP fluorescence, 30 nM TC-6683” value (Lenti-X 293T cells; TC-6683 30 nM) was −22.285%, the “percent quench of YFP fluorescence, 300 nM TC-6683” value (Lenti-X 293T cells; TC-6683 300 nM) was −23.926% and the “percent quench of YFP fluorescence, 3 uM TC-6683” value (Lenti-X 293T cells; TC-6683 3 uM) was −20.514%. For the same molecule, the “percent quench of YFP fluorescence, 30 uM TC-6683” value (Lenti-X 293T cells; TC-6683 30 uM) was −3.078%, the “percent quench of YFP fluorescence, 100 uM TC-6683” value (Lenti-X 293T cells; TC-6683 100 uM) was 7.37% and the “percent quench of YFP fluorescence, 10 uM ach” value (Lenti-X 293T cells; acetylcholine 10 uM) was −12.91%. For the same molecule, the “percent quench of YFP fluorescence, 100 uM ach” value (Lenti-X 293T cells; acetylcholine 100 uM) was −20.88%, the “percent quench of YFP fluorescence, 1 mM ach” value (Lenti-X 293T cells; acetylcholine 1 mM) was 79.85% and the “percent quench of YFP fluorescence, 3 mM ach” value (Lenti-X 293T cells; acetylcholine 3 mM) was 79.98%. The “fold increased potency towards AZD-0328 compared with wild type receptor” value (HEK293T cells; ligand AZD-0328) was “at least 10 fold” and the “fold increased potency towards RG-3487 compared with wild type receptor” value (HEK293T cells; ligand RG-3487) was “at least 10 fold”.
